# In patent US20210179726A1 (DINGFU BIOTARGET, published 2021):
# T1: hCD27-muFc (human; mouse, UniProt P26842 20-192)
# T1 construct: range 1-192; Secreted from HEK293, Protein A purified; not shown: mouse IgG1-Fc (muFc), residues 98 to 324 of UniProt P01868
# T1 sequence (looked up): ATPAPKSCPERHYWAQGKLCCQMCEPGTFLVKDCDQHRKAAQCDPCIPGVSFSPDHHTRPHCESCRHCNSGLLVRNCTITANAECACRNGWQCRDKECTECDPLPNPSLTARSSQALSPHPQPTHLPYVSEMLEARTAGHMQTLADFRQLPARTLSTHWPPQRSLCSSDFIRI
# T2: hCD27-EGFP on HEK293 cells (human, UniProt P26842 20-260)
# T2 construct: EGFP fusion expressed on transfected HEK293 cells; also called CD27-EGFP cells; cell surface CD27
# T2 sequence (looked up): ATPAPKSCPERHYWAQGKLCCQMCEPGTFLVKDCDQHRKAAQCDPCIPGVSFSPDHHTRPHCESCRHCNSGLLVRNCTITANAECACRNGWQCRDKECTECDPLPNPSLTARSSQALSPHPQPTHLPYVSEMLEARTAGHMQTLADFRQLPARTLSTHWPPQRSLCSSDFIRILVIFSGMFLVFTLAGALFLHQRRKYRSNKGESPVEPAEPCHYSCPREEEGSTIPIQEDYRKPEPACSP
# Columns and labels:
# hCD27-muFc [1] = biological target: T1, hCD27-muFc; experiment: BLI (Octet K2), antibody on Protein A biosensor, hCD27-muFc in solution
# Protocol: Using the BLI method, each humanized antibody was immobilized on a Protein A biosensor at a concentration of 10 μg/ml, while hCD27-muFc was subjected to 2-fold serial dilution, starting from 100 nM, to obtain 5 gradient dilutions for each antibody. The reaction plate was placed on the Octet K2 instrument. The parameters were set to Baseline 70 s, Association 80 s, Dissociation 300 s, Baseline 260 s, Loading 40 s, and Custom 5 s.
# hCD27-muFc [2] = biological target: T1, hCD27-muFc; experiment: ELISA, plate coated with hCD27-muFc, Test 1
# Protocol: (§1) The ELISA plate was coated with 2 μg/ml hCD27-muFc, 100 μl/well and incubated at 4° C. overnight. Then it was washed once with 10 mM, pH 7.4 PBS/Tween (0.05%), blocked with PBST containing 5% skimmed milk powder and incubated at 37° C. for 2 h. After washing the plate for 4 times, the humanized antibodies were added and incubated at 37° C. for 40 min, then it was washed for 4 times. Anti-human IgG-HRP-conjugated secondary antibody (Sigma, Cat #A0170-1M) was added and incubated at 37° C. for 40 min. After washing, the plate was developed with TMB substrate and spectrophotometric analysis was performed at OD₄₅₀. In FIGS. 5A-5B, each curve represents the binding result obtained for one of the humanized antibodies. From the results, it can be seen that all these humanized antibodies could bind to human CD27.
# hCD27-muFc [3] = biological target: T1, hCD27-muFc; experiment: ELISA, plate coated with hCD27-muFc, Test 2
# Protocol: as §1
# [4] = biological target: T2, hCD27-EGFP on HEK293 cells; experiment: FACS titration on CD27-EGFP HEK293 cells, 8 three-fold dilutions from 20 µg/ml, anti-human Ig-APC secondary, MFI; table drawn under the plot, unit from the x axis; no upper plateau reached
# Protocol: Based on the above results of ELISA, 7 humanized antibodies were selected to examine their affinities to cell surface CD27. Briefly, 5×10⁵ CD27-EGFP cells prepared in Example 1 were washed twice in PBS, each of the humanized antibodies (d16647, d12996, d9419, 14822, 9424, d14822, d12674) was added. The antibodies were subjected to 3-fold serial dilution, starting from 20 μg/ml, to obtain 8 gradient dilutions for each antibody. The antibodies and the cells were incubated at 4° C. for 30 min. Then, it was washed twice with PBS, anti-human Ig-APC (Jackson ImmunoResearch Laboratories, Cat #109-135-098) was added, and incubated at 4° C. for 30 min, washed twice with PBS and resuspended in 300 μl PBS. Flow cytometry was then performed, and the results are shown in FIG. 6. m2F11 was used as a control.
Binder,Kd (hCD27-muFc [1]) [nM],koff (hCD27-muFc [1]) [s⁻¹],kon (hCD27-muFc [1]) [M⁻¹ s⁻¹],EC50 (hCD27-muFc [2]) [µg/mL],EC50 (hCD27-muFc [3]) [µg/mL],LogEC50 [4]
"12996 (antibody, human IgG1, V domains shown, not shown: a dimerising Fc or GST, Humanized m2F11, human IgG1 / kappa) VH: EVHLQESGGGLVKPGGSLRLSCAASGFTFSSYAMSWVRQAPEKGLEWVAIIGDGDTYTYYPDSVKGRFTISRDNSKNRLYLQMNSLKSEDTAMYYCVRTRGGPFDYWGQGTTLTVSS VL: EILLTQSPAFMSATPGEKVTITCSASSSVGSMHWYQQKSGQSPRRLIYDTSKLASGVPDRFSGSGSGTDYTLTISSLEAEDAATYYCQQWSSIPPTFGAGTTLELK",4.98,0.000368,73900,0.0506,,
"d14822 (antibody, human IgG1, V domains shown, not shown: a dimerising Fc or GST, Humanized m2F11, human IgG1 / kappa) VH: EVHLQESGGGLVKPGGSLRLSCAASGFTFSSYAMSWVRQTPDKGLEWVAIIGDGDTYTYYPDSVKGRFTISRDNSKNTLYLQMNDLKSEDTAMYYCVRTRGGPFDYWGQGTTLTVSS VL: EILLTQSPAFMSATPGEKVTITCSASSSVGSMHWYQQKSGQSPRRLIYDTSKLASGVPDRFSGSGSGTDYTLTISSLEAEDAATYYCQQWSSIPPTFGAGTTLELK",4.27,0.000334,78200,,0.0339,0.373 Log10(ug/ml)
"d16647 (antibody, human IgG1, V domains shown, not shown: a dimerising Fc or GST, Humanized m2F11, human IgG1 / kappa) VH: QVELRESGGGLVKPGGSLRLSCAASGFTFSSYAMSWVRQTPDKGLEWVAIIGDGDTYTYYPDSVKGRFTISRDNSKNRLYLQMNDLKSEDTAMYYCVRTRGGPFDYWGQGTTLTVSS VL: EILLTQSPAFMSATPGEKVTITCSASSSVGSMHWYQQKSGQSPRRLIYDTSKLASGVPDRFSGSGSGTDYTLTISSLEAEDAATYYCQQWSSIPPTFGAGTTLELK",3.05,0.000281,92100,0.0376,,0.601 Log10(ug/ml)
"d12674 (antibody, human IgG1, V domains shown, not shown: a dimerising Fc or GST, Humanized m2F11, human IgG1 / kappa) VH: EVHLQESGGGLVKPGGSLRLSCAASGFTFSSYAMSWVRQAPGKGLEWVAIIGDGDTYTYYPDSVKGRFTISRDNSKNRLYLQMNDLKSEDTAMYYCVRTRGGPFDYWGQGTTLTVSS VL: EILLTQSPAFMSATPGEKVTITCSASSSVGSMHWYQQKSGQSPRRLIYDTSKLASGVPDRFSGSGSGTDYTLTISSLEAEDAATYYCQQWSSIPPTFGAGTTLELK",5,0.000447,89400,,0.0424,0.635 Log10(ug/ml)
"9424 (antibody, human IgG1, V domains shown, not shown: a dimerising Fc or GST, Humanized m2F11, human IgG1 / kappa) VH: EVHLQESGGGLVKPGGSLRLSCAASGFTFSSYAMSWVRQTPEKGLEWVAIIGDGDTYTYYPDSVKGRFTISRDNAKNTLYLQMNSLKSEDTAMYYCVRTRGGPFDYWGQGTTLTVSS VL: EILLTQSPAFMSATPGEKVTITCSASSSVGSMHWYQQKSGQSPRRLIYDTSKLASGVPDRFSGSGSGTDYTLTISSLEAEDAATYYCQQWSSIPPTFGAGTTLELK",7.02,0.000396,56500,,0.0342,0.546 Log10(ug/ml)
"d12996 (antibody, human IgG1, V domains shown, not shown: a dimerising Fc or GST, Humanized m2F11, human IgG1 / kappa) VH: EVHLQESGGGLVKPGGSLRLSCAASGFTFSSYAMSWVRQEPEKNLEWVAIIGDGDTYTYYPDSVKGRFTISRDNSKNRLYLQMNDLKSEDTAMYYCVRTRGGPFDYWGQGTTLTVSS VL: EILLTQSPAFMSATPGEKVTITCSASSSVGSMHWYQQKSGQSPRRLIYDTSKLASGVPDRFSGSGSGTDYTLTISSLEAEDAATYYCQQWSSIPPTFGAGTTLELK",3.39,0.000326,96200,0.03,,0.562 Log10(ug/ml)
"9419 (antibody, human IgG1, V domains shown, not shown: a dimerising Fc or GST, Humanized m2F11, human IgG1 / kappa) VH: EVHLQESGGALVKPGGSLRLSCAASGFTFSSYAMSWVRQAPEKGLEWVAIIGDGDTYTYYPDSVKGRFTISRDNAKNTLYLQMSNLKSEDTAMYYCVRTRGGPFDYWGQGTTLTVSS VL: EILLTQSPAFMSATPGEKVTITCSASSSVGSMHWYQQKSGQSPRRLIYDTSKLASGVPDRFSGSGSGTDYTLTISSLEAEDAATYYCQQWSSIPPTFGAGTTLELK",2.73,0.000287,105000,0.0583,,
"12674 (antibody, human IgG1, V domains shown, not shown: a dimerising Fc or GST, Humanized m2F11, human IgG1 / kappa) VH: EVHLQESGGGLVKPGGSLRLSCAASGFTFSSYAMSWVRQAPGKGLEWVAIIGDGDTYTYYPDSVKGRFTISRDNSKNRLYLQMNSLKSEDTAMYYCVRTRGGPFDYWGQGTTLTVSS VL: EILLTQSPAFMSATPGEKVTITCSASSSVGSMHWYQQKSGQSPRRLIYDTSKLASGVPDRFSGSGSGTDYTLTISSLEAEDAATYYCQQWSSIPPTFGAGTTLELK",3.66,0.000291,79500,0.0585,,
"d9419 (antibody, human IgG1, V domains shown, not shown: a dimerising Fc or GST, Humanized m2F11, human IgG1 / kappa) VH: EVHLQESGGALVKPGGSLRLSCAASGFTFSSYAMSWVRQKPEKNLEWVAIIGDGDTYTYYPDSVKGRFTISRDNAKNTLYLQMSDLKSEDTAMYYCVRTRGGPFDYWGQGTTLTVSS VL: EILLTQSPAFMSATPGEKVTITCSASSSVGSMHWYQQKSGQSPRRLIYDTSKLASGVPDRFSGSGSGTDYTLTISSLEAEDAATYYCQQWSSIPPTFGAGTTLELK",1.7,0.000205,120000,0.033,,0.564 Log10(ug/ml)
"16647 (antibody, human IgG1, V domains shown, not shown: a dimerising Fc or GST, Humanized m2F11, human IgG1 / kappa) VH: QVELRESGGGLVKPGGSLRLSCAASGFTFSSYAMSWVRQMPGKGLEWVAIIGDGDTYTYYPDSVKGRFTISRDNSKNRLYLQMNSLKSEDTAMYYCVRTRGGPFDYWGQGTTLTVSS VL: EILLTQSPAFMSATPGEKVTITCSASSSVGSMHWYQQKSGQSPRRLIYDTSKLASGVPDRFSGSGSGTDYTLTISSLEAEDAATYYCQQWSSIPPTFGAGTTLELK",4.86,0.000348,71500,,0.0445,
"14822 (antibody, human IgG1, V domains shown, not shown: a dimerising Fc or GST, Humanized m2F11, human IgG1 / kappa) VH: EVHLQESGGGLVKPGGSLRLSCAASGFTFSSYAMSWVRQMPGKGLEWVAIIGDGDTYTYYPDSVKGRFTISRDNSKNTLYLQMNSLKSEDTAMYYCVRTRGGPFDYWGQGTTLTVSS VL: EILLTQSPAFMSATPGEKVTITCSASSSVGSMHWYQQKSGQSPRRLIYDTSKLASGVPDRFSGSGSGTDYTLTISSLEAEDAATYYCQQWSSIPPTFGAGTTLELK",5.15,0.000499,97000,0.0427,,0.62 Log10(ug/ml)
